Results: patent US20030143712A1 (J DAVID GLADSTONE INSTITUTES, published 2003)

Legend:
endogenous HDAC3, O15379 = target: T1, endogenous HDAC3, O15379
T1 chain: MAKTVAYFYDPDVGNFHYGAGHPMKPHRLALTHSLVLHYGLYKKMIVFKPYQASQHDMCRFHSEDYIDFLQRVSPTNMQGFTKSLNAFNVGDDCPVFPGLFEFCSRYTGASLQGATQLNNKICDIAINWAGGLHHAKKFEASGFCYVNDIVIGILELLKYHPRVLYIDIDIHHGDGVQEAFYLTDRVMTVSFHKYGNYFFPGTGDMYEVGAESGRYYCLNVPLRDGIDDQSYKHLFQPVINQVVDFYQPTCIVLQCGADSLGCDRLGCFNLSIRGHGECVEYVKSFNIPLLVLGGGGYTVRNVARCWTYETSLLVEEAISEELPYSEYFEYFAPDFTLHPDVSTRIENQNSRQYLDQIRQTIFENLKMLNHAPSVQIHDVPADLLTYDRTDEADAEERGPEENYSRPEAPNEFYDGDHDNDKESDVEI

endogenous HDAC1 = endogenous HDAC1 (UniProt Q13547 1-482); assay: GST pull-down from SupT1 cell extracts, western blot
Method: (§1) After incubation for 3 hours at 4° C. with rocking, reactions were washed three times in IPLS, three times in the same buffer but at 1 M NaCl, and two times in HD buffer (Fischle et al., supra). Pulldown reactions were split, and either processed for histone deacetylase activity assays or for western blotting. For pulldown reactions with ³⁵S-labeled proteins, cDNAs were transcribed and translated with the TNT reticulocyte system (Promega). The labeling reaction (5 μl) was incubated with GST fusion proteins in a total volume of 200 μl of GST buffer (20 mM Tris-HCl, pH 8.0, 150 mM KCl, 5 mM DTT, 2 mM EDTA, 10% glycerol, 0.5% non fat dry milk, 0.1% NP-40) for 1 h at 4° C. with rocking. Reactions were washed five times in the same buffer, and bound proteins were resolved on denaturing SDS-PAGE gels for analysis by autoradiography.
(§2) After extensive washing, the bound material was tested for HDAC activity.

endogenous HDAC2 = endogenous HDAC2 (UniProt Q92769 1-488); assay: as above
endogenous HDAC2, sequence (Q92769 whole entry): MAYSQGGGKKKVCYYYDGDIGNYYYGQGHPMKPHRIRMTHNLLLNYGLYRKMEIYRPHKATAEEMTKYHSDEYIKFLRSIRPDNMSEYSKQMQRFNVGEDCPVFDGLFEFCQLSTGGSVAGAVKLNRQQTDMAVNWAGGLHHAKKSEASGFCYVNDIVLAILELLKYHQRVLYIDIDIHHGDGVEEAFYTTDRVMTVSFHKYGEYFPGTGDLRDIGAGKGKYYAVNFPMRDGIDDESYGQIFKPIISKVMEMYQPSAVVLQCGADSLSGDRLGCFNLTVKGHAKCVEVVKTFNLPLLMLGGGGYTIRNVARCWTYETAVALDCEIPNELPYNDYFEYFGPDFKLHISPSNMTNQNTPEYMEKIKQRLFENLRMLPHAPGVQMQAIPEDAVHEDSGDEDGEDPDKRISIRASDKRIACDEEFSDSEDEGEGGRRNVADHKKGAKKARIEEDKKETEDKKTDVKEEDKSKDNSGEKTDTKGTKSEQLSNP
Method: as §1, §2

endogenous HDAC1, sequence (Q13547 whole entry): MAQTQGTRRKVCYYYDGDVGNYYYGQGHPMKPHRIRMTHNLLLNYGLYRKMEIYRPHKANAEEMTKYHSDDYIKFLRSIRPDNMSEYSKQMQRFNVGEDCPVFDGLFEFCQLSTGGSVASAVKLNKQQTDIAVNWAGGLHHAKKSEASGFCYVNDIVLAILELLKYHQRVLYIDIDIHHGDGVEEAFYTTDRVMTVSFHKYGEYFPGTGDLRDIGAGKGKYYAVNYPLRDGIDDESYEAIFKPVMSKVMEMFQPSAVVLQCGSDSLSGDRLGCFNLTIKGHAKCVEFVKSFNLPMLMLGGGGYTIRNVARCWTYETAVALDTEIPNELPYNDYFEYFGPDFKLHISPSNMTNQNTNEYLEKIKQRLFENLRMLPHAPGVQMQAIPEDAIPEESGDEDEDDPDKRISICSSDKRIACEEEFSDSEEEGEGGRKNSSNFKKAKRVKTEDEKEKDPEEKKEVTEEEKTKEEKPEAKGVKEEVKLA

B1: GST-HDAC7(aa 438-912) (enzyme)
chain: QGGHRPLSRAQSSPAAPASLSAPEPASQARVLSSSETPARTLPFTTGLIYDSVMLKHQCSCGDNSRHPEHAGRIQSIWSRLQERGLRSQCECLRGRKASLEELQSVHSERHVLLYGTNPLSRLKLDNGKLAGLLAQRMFVMLPCGGVGVDTDTIWNELHSSNAARWAAGSVTDLAFKVASRELKNGFAVVRPPGHHADHSTAMGFCFFNSVAIACRQLQQQSKASKILIVDWDVHHGNGTQQTFYQDPSVLYISLHRHDDGNFFPGSGAVDEVGAGSGEGFNVNVAWAGGLDPPMGDPEYLAAFRIVVMPIAREFSPDLVLVSAGFDAAEGHPAPLGGYHVSAKCFGYMTQQLMNLAGGAVVLALEGGHDLTAICDASEACVAALLGNRVDPLSEEGWKQKPNLNAIRSLEAVIRVHSKYWGCMQRLASCPDSWVPRVPGADKEEVEAVTALASLSVGILAEDRPSEQLVEEEEP
notes: also called active GST-HDAC7; not shown: glutathione-S-transferase (GST) of the pGEX4T1 vector (Pharmacia), N-terminal fusion partner
- HDAC activity associated with the GST pull-down from GST-HDAC4 depleted lysate against GST depleted lysate (fold reduction) (endogenous HDAC3, O15379): 3
- binding result (endogenous HDAC1): no binding
- binding result (endogenous HDAC2): no binding
